Assay results published in publication PMC9875641, “Ophthalmic Solution of Smart Supramolecular Peptides to Capture Semaphorin 4D against Diabetic Retinopathy” (Advanced Science, 2022).
Each block holds one binder with its values, some of them ahead of it.

Molecular target: soluble semaphorin 4D
Experiment: SPR; surface plasmon resonance imaging (SPRi) of TPs and sSema4D; who was immobilised and the conditions are not told in the main text
Settings: both partners purified

Chain of soluble semaphorin 4D (chain, as listed by the source): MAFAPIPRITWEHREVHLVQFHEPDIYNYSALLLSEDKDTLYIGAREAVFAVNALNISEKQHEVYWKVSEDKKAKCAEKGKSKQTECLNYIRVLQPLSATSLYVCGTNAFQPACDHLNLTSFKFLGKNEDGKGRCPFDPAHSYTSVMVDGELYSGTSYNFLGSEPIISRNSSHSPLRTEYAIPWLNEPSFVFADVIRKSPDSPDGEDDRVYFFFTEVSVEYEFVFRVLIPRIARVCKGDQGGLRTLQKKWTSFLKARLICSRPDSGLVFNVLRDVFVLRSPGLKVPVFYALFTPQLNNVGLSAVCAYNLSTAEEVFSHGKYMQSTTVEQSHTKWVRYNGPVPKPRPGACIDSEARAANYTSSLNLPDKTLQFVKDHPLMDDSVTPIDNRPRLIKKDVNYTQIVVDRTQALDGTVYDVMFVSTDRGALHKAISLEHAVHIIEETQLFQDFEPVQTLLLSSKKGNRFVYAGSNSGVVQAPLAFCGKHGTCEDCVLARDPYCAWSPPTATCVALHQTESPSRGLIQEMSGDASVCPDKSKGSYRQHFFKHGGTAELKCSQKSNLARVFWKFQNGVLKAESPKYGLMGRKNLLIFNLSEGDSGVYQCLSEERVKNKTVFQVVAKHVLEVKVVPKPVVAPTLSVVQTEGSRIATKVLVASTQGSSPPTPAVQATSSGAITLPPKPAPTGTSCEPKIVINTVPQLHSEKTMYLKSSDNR

Kd: 41.7 nM
B1: TP-2 (peptide)
chain: KQKRPRH
modifications: Limits taken by convention as the full extracellular domain after the signal peptide. Species is not printed for the assayed protein; human is assumed, mouse O09126 24-733 is the alternative. Natural

Kd: 14.6 nM
B2: TP-7 (peptide)
chain: KNKAAKG
modifications: Limits taken by convention as the full extracellular domain after the signal peptide. Species is not printed for the assayed protein; human is assumed, mouse O09126 24-733 is the alternative. Natural
